4 molecules from PMC9482650, “Quantitative fragmentomics allow affinity mapping of interactomes” (Nature Communications, 2022) can be followed below.

Common to all, as to assay: holdup assay
What all share (parameters): key: below the threshold = too weak to quantify, mostly under pKd 3.1 to 4

For experiment [1], the target named is T1, SNTB1, Q13884.
T1 sequence (Q13884 107-205, limits assumed, looked up): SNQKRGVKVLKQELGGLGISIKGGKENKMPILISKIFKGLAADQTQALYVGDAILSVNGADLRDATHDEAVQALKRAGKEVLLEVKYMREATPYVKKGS

Experiment [2] addresses T2, DLG3_3, Q92796.
T2 sequence (Q92796 374-475, limits assumed, looked up): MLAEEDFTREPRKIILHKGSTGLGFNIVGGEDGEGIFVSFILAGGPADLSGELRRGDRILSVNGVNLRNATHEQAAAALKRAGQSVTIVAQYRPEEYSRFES

Experiment [3] concerns the target SCRIB_2, Q14160.
Experiment [4] has as its target PARD3_3, Q8TEW0.
Experiment [5] concerns the target T3, NHERF3_3, Q5T2W1.
T3 sequence (Q5T2W1 238-333, limits assumed, looked up): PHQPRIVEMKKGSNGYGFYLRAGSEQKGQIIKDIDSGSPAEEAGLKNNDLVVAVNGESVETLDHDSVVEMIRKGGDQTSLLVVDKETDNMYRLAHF

Experiment [6] has as its target T4, SNTA1, Q13424.
T4 sequence (Q13424 82-180, limits assumed, looked up): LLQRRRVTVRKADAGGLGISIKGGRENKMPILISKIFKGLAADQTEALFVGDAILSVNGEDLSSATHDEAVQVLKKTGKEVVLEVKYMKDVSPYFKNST

The target in experiment [7] is T5, CARD11, Q9BXL7.
T5 sequence (Q9BXL7 662-765, limits assumed, looked up): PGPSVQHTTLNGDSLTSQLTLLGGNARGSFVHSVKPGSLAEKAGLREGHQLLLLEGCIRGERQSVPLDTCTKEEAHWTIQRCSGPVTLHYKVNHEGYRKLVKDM

Experiment [8] has as its target PDZRN4_1, Q6ZMN7.
Experiment [9] deals with TJP1_2, Q07157.
Experiment [10] concerns the target T6, SIPA1L2, Q9P2F8.
T6 sequence (Q9P2F8 945-1036, limits assumed, looked up): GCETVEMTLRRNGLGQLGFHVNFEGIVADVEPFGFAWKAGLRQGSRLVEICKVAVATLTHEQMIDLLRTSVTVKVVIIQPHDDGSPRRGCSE

In experiment [11] the target is LNX1_2, Q8TBB1.
Experiment [12] addresses MAST1, Q9Y2H9.
Experiment [13] concerns the target T7, DFNB31_2, Q9P202.
T7 sequence (Q9P202 274-371, limits assumed, looked up): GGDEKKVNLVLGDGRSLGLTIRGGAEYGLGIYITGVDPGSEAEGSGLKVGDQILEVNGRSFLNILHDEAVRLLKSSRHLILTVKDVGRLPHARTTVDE

Experiment [14] deals with GIPC2, Q8TF65.
Experiment [15] has as its target T8, TIAM2, Q8IVF5.
T8 sequence (Q8IVF5 885-986, limits assumed, looked up): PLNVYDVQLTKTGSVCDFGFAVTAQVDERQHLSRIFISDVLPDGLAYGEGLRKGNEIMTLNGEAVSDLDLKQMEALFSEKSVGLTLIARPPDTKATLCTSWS

Experiment [16] concerns the target T9, NHERF3_1, Q5T2W1.
T9 sequence (Q5T2W1 4-100, limits assumed, looked up): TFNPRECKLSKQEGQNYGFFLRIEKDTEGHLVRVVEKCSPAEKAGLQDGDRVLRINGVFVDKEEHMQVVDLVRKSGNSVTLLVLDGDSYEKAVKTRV

For experiment [17], the target named is HTRA2, O43464.
Experiment [18] has as its target T10, DLG3_1, Q92796.
T10 sequence (Q92796 125-227, limits assumed, looked up): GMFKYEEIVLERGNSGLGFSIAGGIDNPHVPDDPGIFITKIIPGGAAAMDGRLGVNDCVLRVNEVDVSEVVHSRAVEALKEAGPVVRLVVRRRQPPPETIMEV

In experiment [19] the target is T11, SHANK1, Q9Y566.
T11 sequence (Q9Y566 658-767, limits assumed, looked up): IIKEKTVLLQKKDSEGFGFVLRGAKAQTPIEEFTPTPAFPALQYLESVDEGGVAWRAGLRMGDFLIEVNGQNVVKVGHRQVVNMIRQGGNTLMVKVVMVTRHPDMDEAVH

The target in experiment [20] is DLG4_1, P78352.
The target of experiment [21] is T12, DLG3_2, Q92796.
T12 sequence (Q92796 221-321, limits assumed, looked up): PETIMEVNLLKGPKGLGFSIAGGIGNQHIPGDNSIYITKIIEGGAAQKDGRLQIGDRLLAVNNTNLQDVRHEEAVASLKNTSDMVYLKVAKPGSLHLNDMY

For experiment [22], the target named is LIMK2, P53671.
In experiment [23] the target is IL16_1, Q14005.
The target of experiment [24] is T13, RAPGEF6, Q8TEU7.
T13 sequence (Q8TEU7 525-625, limits assumed, looked up): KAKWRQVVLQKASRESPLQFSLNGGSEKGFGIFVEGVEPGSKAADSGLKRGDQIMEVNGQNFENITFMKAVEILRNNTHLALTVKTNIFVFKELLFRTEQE

The mark [25] stands for this setting: plain residues with an end cap or a label only (N-terminal biotin on a linker: ttds).
[26] abbreviates: plain residues with an end cap or a label only (N-terminal biotin on a linker: ahx).
[27] abbreviates: plain residues with an end cap or a label only (N-terminal biotin on a linker: ado-ado).

Chain of GIPC2, Q8TF65 (Q8TF65 112-203): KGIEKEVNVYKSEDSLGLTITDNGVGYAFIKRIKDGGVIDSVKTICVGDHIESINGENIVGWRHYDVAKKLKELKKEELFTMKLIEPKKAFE
Chain of LNX1_2, Q8TBB1 (Q8TBB1 371-470): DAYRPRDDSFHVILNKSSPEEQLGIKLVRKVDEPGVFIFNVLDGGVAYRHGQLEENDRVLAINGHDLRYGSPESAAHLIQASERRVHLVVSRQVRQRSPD
Chain of HTRA2, O43464 (O43464 355-458): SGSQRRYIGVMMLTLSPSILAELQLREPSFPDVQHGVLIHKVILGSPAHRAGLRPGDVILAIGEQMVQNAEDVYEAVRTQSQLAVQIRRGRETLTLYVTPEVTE
Chain of TJP1_2, Q07157 (Q07157 181-274): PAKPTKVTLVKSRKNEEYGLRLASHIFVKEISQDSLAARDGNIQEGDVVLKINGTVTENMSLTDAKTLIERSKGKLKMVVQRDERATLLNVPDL
Chain of PDZRN4_1, Q6ZMN7 (Q6ZMN7 213-318): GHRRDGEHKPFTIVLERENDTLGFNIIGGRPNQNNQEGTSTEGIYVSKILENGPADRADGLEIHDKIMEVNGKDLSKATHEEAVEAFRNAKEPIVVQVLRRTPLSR
Chain of DLG4_1, P78352 (P78352 62-152): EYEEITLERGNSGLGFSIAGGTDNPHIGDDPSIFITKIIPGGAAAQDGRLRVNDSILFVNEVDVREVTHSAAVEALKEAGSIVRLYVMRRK
Chain of IL16_1, Q14005 (Q14005 210-306): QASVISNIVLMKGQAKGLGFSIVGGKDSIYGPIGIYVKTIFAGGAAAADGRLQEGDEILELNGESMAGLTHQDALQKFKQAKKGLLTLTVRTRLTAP
Chain of LIMK2, P53671 (P53671 143-248): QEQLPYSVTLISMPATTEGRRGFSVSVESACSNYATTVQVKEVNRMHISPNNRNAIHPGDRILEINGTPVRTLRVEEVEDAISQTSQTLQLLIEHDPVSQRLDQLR
Chain of PARD3_3, Q8TEW0 (Q8TEW0 582-685): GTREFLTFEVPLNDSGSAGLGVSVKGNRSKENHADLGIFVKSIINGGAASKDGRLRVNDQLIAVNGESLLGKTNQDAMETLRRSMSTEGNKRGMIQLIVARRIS
Chain of MAST1, Q9Y2H9 (Q9Y2H9 962-1065): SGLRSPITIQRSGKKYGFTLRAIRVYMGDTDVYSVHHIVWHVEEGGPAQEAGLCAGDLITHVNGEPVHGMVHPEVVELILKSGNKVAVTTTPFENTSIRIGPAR
Chain of SCRIB_2, Q14160 (Q14160 857-960): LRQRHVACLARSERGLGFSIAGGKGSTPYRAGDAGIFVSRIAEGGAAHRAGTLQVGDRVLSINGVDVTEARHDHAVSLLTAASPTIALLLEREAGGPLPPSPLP

B1: ARHGAP6, O43182 (peptide)
chain: NPDALPETLV
As a reminder, the pKd is −log10 of the Kd, conventionally taken in molar units. With B1, the pKd in [1] (setting [25]) was 4.86; in experiment [2] (setting [25]), “below the threshold”; in experiment [3] (setting [25]), 3.8; in experiment [4] (setting [25]), 3.85; in experiment [5] (setting [25]), “below the threshold”; in [6] (setting [25]) it was 5.05. Besides, the pKd entry is “below the threshold” in experiment [7] (setting [25]); 4.11 in experiment [8] (setting [25]); “below the threshold” in experiment [9] (setting [25]); “below the threshold” in experiment [10] (setting [25]); 3.73 in experiment [11] (setting [25]); 4.38 in experiment [12] (setting [25]). Besides, the pKd result was “below the threshold” in experiment [13] (setting [25]); 3.49 in experiment [14] (setting [25]); “below the threshold” in experiment [15] (setting [25]); 4.55 in experiment [16] (setting [25]); “below the threshold” in experiment [17] (setting [25]); “below the threshold” in [18] (setting [25]). Further, the pKd entry in [19] (setting [25]) is “below the threshold”; in [20] (setting [25]) it was 4.13; in [21] (setting [25]), 4.18; in experiment [22] (setting [25]), “below the threshold”; in experiment [23] (setting [25]), 3.87; in experiment [24] (setting [25]), “below the threshold”.

B2: ARVCF, O00192 (peptide)
chain: AKPQPVDSWV
Consider B2, for which the pKd in experiment [1] (setting [26]) was 3.5; in experiment [2] (setting [26]) it was “below the threshold”; in experiment [3] (setting [26]), 5.16; in [4] (setting [26]) it was 4.05; in experiment [5] (setting [26]), “below the threshold”; in [6] (setting [26]), “below the threshold”. For the same molecule, the negative-log Kd (pKd) entry in [7] (setting [26]) is “below the threshold”; in [8] (setting [26]), 3.63; in experiment [9] (setting [26]), “below the threshold”; in [10] (setting [26]) it was “below the threshold”; in experiment [11] (setting [26]), “below the threshold”; in [12] (setting [26]), “below the threshold”. Moreover, the pKd result in experiment [13] (setting [26]) was “below the threshold”; in experiment [14] (setting [26]), “below the threshold”; in experiment [15] (setting [26]) it was “below the threshold”; in [16] (setting [26]), “below the threshold”; in experiment [17] (setting [26]), 3.68; in experiment [18] (setting [26]) it was 4.09. The pKd entry in experiment [19] (setting [26]) is “below the threshold”; in experiment [20] (setting [26]), 4.2; in experiment [21] (setting [26]), 4.49; in [22] (setting [26]), “below the threshold”; in experiment [23] (setting [26]) it was 4.1; in [24] (setting [26]) it was “below the threshold”.

B3: U2AF2, P26368 (peptide)
chain: PDSYHRRDFW
On to B3, for which the pKd result in experiment [1] (setting [27]), in experiment [2] (setting [27]), in experiment [3] (setting [27]), in [4] (setting [27]), in experiment [5] (setting [27]) and in experiment [6] (setting [27]) was “below the threshold” each time. For the same molecule, the pKd entry in experiment [7] (setting [27]) is “below the threshold”; in experiment [8] (setting [27]), 3.89; in experiment [9] (setting [27]) it was 3.72; in experiment [10] (setting [27]), “below the threshold”; in experiment [11] (setting [27]), “below the threshold”; in [12] (setting [27]) it was 3.49. The pKd result in experiment [13] (setting [27]), in [14] (setting [27]), in experiment [15] (setting [27]), in experiment [16] (setting [27]), in [17] (setting [27]) and in experiment [18] (setting [27]) was “below the threshold” throughout. Further, the pKd entry in experiment [19] (setting [27]) is “below the threshold”; in experiment [20] (setting [27]) it was 3.62; in experiment [21] (setting [27]), “below the threshold”; in experiment [22] (setting [27]), “below the threshold”; in experiment [23] (setting [27]) it was “below the threshold”; in experiment [24] (setting [27]) it was “below the threshold”.

B4: DLL1, O00548 (peptide)
chain: KDECVIATEV
Take B4: the pKd is 3.64 in experiment [1] (setting [26]); “below the threshold” in experiment [2] (setting [26]); 3.82 in experiment [3] (setting [26]); “below the threshold” in [4] (setting [26]); “below the threshold” in experiment [5] (setting [26]); “below the threshold” in [6] (setting [26]). Further, the pKd result in [7] (setting [26]) was “below the threshold”; in [8] (setting [26]), “below the threshold”; in experiment [9] (setting [26]) it was “below the threshold”; in experiment [10] (setting [26]), “below the threshold”; in experiment [11] (setting [26]), “below the threshold”; in experiment [12] (setting [26]), 4.38. Besides, the pKd result was “below the threshold” in [13] (setting [26]); “below the threshold” in experiment [14] (setting [26]); “below the threshold” in [15] (setting [26]); 3.88 in [16] (setting [26]); “below the threshold” in experiment [17] (setting [26]); “below the threshold” in [18] (setting [26]). Also, the pKd is 3.76 in [19] (setting [26]); 3.93 in [20] (setting [26]); 4.52 in experiment [21] (setting [26]); “below the threshold” in experiment [22] (setting [26]); 3.47 in experiment [23] (setting [26]); “below the threshold” in experiment [24] (setting [26]).
